T1: PTHR1 on CHO-K1/Ga15/PTHR1 cells (UniProt Q03431 27-593, limits assumed)
T1 sequence (looked up): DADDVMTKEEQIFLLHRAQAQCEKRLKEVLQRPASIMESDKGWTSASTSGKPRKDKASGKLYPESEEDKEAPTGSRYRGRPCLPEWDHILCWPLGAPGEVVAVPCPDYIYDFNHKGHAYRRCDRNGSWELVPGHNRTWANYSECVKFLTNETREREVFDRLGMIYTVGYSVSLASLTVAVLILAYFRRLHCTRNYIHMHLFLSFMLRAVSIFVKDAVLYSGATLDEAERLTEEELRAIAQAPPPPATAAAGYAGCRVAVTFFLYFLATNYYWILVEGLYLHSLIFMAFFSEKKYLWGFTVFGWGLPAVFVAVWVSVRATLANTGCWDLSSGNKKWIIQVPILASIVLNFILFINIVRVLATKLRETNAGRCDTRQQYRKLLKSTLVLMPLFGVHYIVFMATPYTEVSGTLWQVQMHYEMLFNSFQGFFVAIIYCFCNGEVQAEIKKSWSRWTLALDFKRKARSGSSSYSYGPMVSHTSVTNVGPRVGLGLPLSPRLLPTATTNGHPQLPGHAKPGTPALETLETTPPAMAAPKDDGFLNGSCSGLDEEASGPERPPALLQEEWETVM


The binders below were run against T1, PTHR1 on CHO-K1/Ga15/PTHR1 cells (assay: cell-based or functional assay).

cAMP accumulation (HTRF): -log10EC50	cAMP accumulation (HTRF): Emax	Binder
-7.1 -log10EC50 (as headed)	96.9%	AVAEIQLMHQRAKWLNELRLKEEMRKILEDVY [R2-33]
-9.98 -log10EC50 (as headed)	3.99%	GIAVITLMVLRALLELQEIGRKITLELLKEYI [R2-51]
-5.87 -log10EC50 (as headed)	10.6%	GVSMLQIMHDLAVIRAEYELREMLLRLLEEIF [R2-4]
110 -log10EC50 (as headed)	665%	GVVMLQFMHDVAKIRAEYELREMLLRLLEEIF [R2-9]
-3.86 -log10EC50 (as headed)	154%	GVAEIQLMVDLDIIRAEYELREMLLRLLEEIF [R2-12]
-4.93 -log10EC50 (as headed)	260%	GVAEIQLMHDIPVIRAEYELREMLLRLLEEIF [R2-3]
-14 -log10EC50 (as headed)	104%	AVAEIQLMHQRAKWGLDLELRARLREILRDVY [R2-31]
-10.3 -log10EC50 (as headed)	98.2%	AVAEIQLMHQRAKWEIQEIGIKITLDLLQTLK [R2-41]
-7.03 -log10EC50 (as headed)	99.2%	AVAEIQLMHQRAKWGLDLELAVKLQEILKDVL [R2-28]
-5.79 -log10EC50 (as headed)	99.9%	GVAELQLMHDLAKIKLELELKVKLLEILKDVY [R2-49]
-4.49 -log10EC50 (as headed)	1680%	GVYAIQAMHDLAKIRAEYELREMLLRLLEEIF [R2-10]
-6.73 -log10EC50 (as headed)	101%	GVAMIQIMHDIAKIRAEYELREMLLRLLEEIF [R2-2]
-7.5 -log10EC50 (as headed)	19.9%	SVMMIQVMHDLAKIRAEYELREMLLRLLEEIF [R2-8]
3.88 -log10EC50 (as headed)	294%	AVATIQLMTDIAKIRAEYELREMLLRLLEEIF [R2-6]
-7.91 -log10EC50 (as headed)	93.3%	AVAEIQLMHQRAKWKLDLELAVSLRKILEDVY [R2-27]
-4.69 -log10EC50 (as headed)	324%	PIPVKDIMDLRAYLRAEYELREMLLRLLEEIF [R2-19]
-4.67 -log10EC50 (as headed)	47%	LILVKKIIDLRAYLRAEYELREMLLRLLEEIF [R2-21]
-7.1 -log10EC50 (as headed)	97.2%	AVAEIQLMHQRAKWLEELKLKDDLRKILEDVY [R2-30]

cAMP accumulation (HTRF): -log10EC50	cAMP accumulation (HTRF): Emax	Binder
-7.89 -log10EC50 (as headed)	96%	AVAEIQLMHQRAKWKLELELKVKLLEILKDVY [R2-25]
-10.1 -log10EC50 (as headed)	17.6%	GIAVITIMIDYAKLRAEYELREMLLRLLEEIF [R2-22]
-5.59 -log10EC50 (as headed)	97.4%	GIAVITLMLLRAYLELLEELVKILHELLRRYH [R2-52]
-6.51 -log10EC50 (as headed)	101%	AVAEIQLMHQRAKWKQELELEEKNKKILEDVY [R2-32]
-1.58 -log10EC50 (as headed)	823%	GVAELQLMHFRALLRAEYELREMLLRLLEEIF [R2-7]
-7.22 -log10EC50 (as headed)	97.5%	AVAEIQLMHQRAKWKLELELKEKIRKLLEDLL [R2-29]
-7.88 -log10EC50 (as headed)	95%	AVAEIQLMHQRAKWIQDARRRAFLHKLIAEIH [LA-PM-FL (R1-81)]
-7.07 -log10EC50 (as headed)	96.8%	AVAEIQLMHQRAKWGLELELKEKLRKILEDVY [R2-26]
-2.23 -log10EC50 (as headed)	36.6%	SIIGEQLMLLRALLRAEYELREMLLRLLEEIF [R2-18]
-5.7 -log10EC50 (as headed)	60.8%	GVAMLQILHDKAKVRAEYELREMLLRLLEEIF [R2-11]
–	1580%	GVALLQIVHDFAKIRAEYELREMLLRLLEEIF [R2-5]
-10.4 -log10EC50 (as headed)	81.4%	GLAALTIGLLRAKLRAEYELREMLLRLLEEIF [R2-24]
-5.31 -log10EC50 (as headed)	116%	GIAVITLMDLRAYLRAEYELREMLLRLLEEIF [R2-13]
-11.3 -log10EC50 (as headed)	117%	GIAVLTILDLRAKLRAEYELREMLLRLLEEIF [R2-14]
-3.35 -log10EC50 (as headed)	39.7%	GIAVFTIMHLRIYLRAEYELREMLLRLLEEIF [R2-17]
-4.71 -log10EC50 (as headed)	48.7%	LILVEQLMDLRAYLRAEYELREMLLRLLEEIF [R2-16]
-6.91 -log10EC50 (as headed)	99.1%	AVAEIQLMHQRAKWELLEELLKILLELLKEYI [R2-38]

From patent publication US20220298217A1 (FLAGSHIP PIONEERING INNOVATIONS VI, published 2022)
